Reference: patent US20260092124A1

Columns and labels:
human CD40 (human) [1] = target: human CD40 (human) (UniProt P25942); assay: cell binding (GpL luciferase, HT1080-CD40); single representative experiment
human CD40 (human) [2] = target: human CD40 (human) (UniProt P25942); assay: cell binding (GpL luciferase, HT1080-CD40); mean, n=5

Chain of human CD40 (human) (P25942 21-277): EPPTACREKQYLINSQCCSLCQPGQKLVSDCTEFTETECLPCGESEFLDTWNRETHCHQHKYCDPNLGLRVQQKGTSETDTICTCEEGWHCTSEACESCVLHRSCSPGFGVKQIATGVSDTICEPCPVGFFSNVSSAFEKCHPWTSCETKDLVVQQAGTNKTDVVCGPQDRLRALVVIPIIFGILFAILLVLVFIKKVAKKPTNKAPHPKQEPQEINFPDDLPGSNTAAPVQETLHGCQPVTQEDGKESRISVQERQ

G28.5 IgG1 variant
Kd (human CD40 (human) [1]): 0.08 µg/mL | Kd (human CD40 (human) [2]): 0.086 µg/mL

APX005M IgG1 variant
Kd (human CD40 (human) [1]): 0.26 µg/mL | Kd (human CD40 (human) [2]): 0.274 µg/mL

CP-870,893 IgG1 variant
Kd (human CD40 (human) [1]): 0.35 µg/mL | Kd (human CD40 (human) [2]): 0.334 µg/mL
